# Laboratory results: patent US20260217847A1 (NANJING REGENECORE BIOTECH, published 2026)
# B1: anti-humanized TfR1 protein single-domain antibody 8E10 (VHH clone, crude extract from pMECS) (VHH, not shown: small tags and cut ends)
# VHH: ESGGGLVQAGGSLRLSCAFSGPPFSTYGMGWFRQAPGKEREFVATISGSGFTTTYADSVKGRFTISRDNAKNTVYLQMNSLKPGDTAVYYCAAGVLDGTNWHEYDYWGQGTQVTVSS
# B2: anti-humanized TfR1 protein single-domain antibody 8B8 (VHH clone, crude extract from pMECS) (VHH, not shown: small tags and cut ends)
# VHH: ESGGGLVQPGGSLRLSCVASGRTFSTSGMGWFRQAPGKEREFVATISWSGFTTTYADSVKGRFTISRDNAKNTVYLQMNSLKPGDTAVYYCAAGVLDSTSWHEYDYWGQGTQVTVSS
# B3: anti-humanized TfR1 protein single-domain antibody 5A3 (VHH clone, crude extract from pMECS) (VHH, not shown: small tags and cut ends)
# VHH: ESGGGLVQAGGSLTLSCAVSRRAFNTKAMGWFRQAPGKEREFVATISWSGFSTNYADSVKGRFTISRDNAKNTVYLQMNSLKPGDTAVYYCAAGVLDGTNWHEYDYWGQGTQVTVSS
# B4: anti-humanized TfR1 protein single-domain antibody 5D3 (VHH clone, crude extract from pMECS) (VHH, not shown: small tags and cut ends)
# VHH: ESGGGLVEPGGSLRLSCAASGNIFSINNMYWHRQAPGKQRELVGGITRGGITNYVDSVKGRFTISRDNAKNTVYLQMNSLKPEDTAVYFCNAHPWRLGIADYWGQGTQVTVSS
# B5: anti-humanized TfR1 protein single-domain antibody 7G5 (VHH clone, crude extract from pMECS) (VHH, not shown: small tags and cut ends)
# VHH: ESGGGSVQPGGSLRLSCAVSGSIFSIDTMAWYRQAPGKQRELVAAITKGGSRNYADSVKGRFTISRDNAKNTVYLQMNSLKPEDTAVYYCLADRLFRDRSWGQGTQVTVSS
# B6: anti-humanized TfR1 protein single-domain antibody 7G10 (VHH clone, crude extract from pMECS) (VHH, not shown: small tags and cut ends)
# VHH: ESGGGLVQAGASLKLSCNGSGRTFISYAMGWFRQAPGKQREFVAAERWSGSGIYYADSLKGRFTISRDNAKNTVYLEMNNLKPEDTAVYYCAAREGGLLHVATSYDYWGQGTQVTVSS
# B7: anti-humanized TfR1 protein single-domain antibody 7D10 (VHH clone, crude extract from pMECS) (VHH, not shown: small tags and cut ends)
# VHH: ESGGGLVQPGGSLRLSCATSGGTFEMYAMAWFRQAPGKDREGVAGFSWRDSSTTYYSDSVKGRFTISRDNAKNTVYLQMNSLKPEDTAVYYCAARPYVSRWSESSGYDYWGQGTQVTVSS
# B8: anti-humanized TfR1 protein single-domain antibody 2H7 (VHH clone, crude extract from pMECS) (VHH, not shown: small tags and cut ends)
# VHH: ESGGGLVQPGESLRLSCVASGSIWSIYTMGWYRQAPGKQRDFVASITGDSTRTLESVKDRFIISRDNTKNTLYLQMNSLKPEDTAVYYCQAITSLGEYWGQGTQVTVSS
# B9: anti-humanized TfR1 protein single-domain antibody 4D11 (VHH clone, crude extract from pMECS) (VHH, not shown: small tags and cut ends)
# VHH: ESGGGLVQPGESLRLSCVASGSIWSIYTMGWYRQAPGKQRDFVASITRDSTRTLESVKDRFIISRDNAKNTLYLQMNSLKPEDTAVYYCHAITSLGEYWGQGTQVTVSS
# B10: anti-humanized TfR1 protein single-domain antibody 5D1 (VHH clone, crude extract from pMECS) (VHH, not shown: small tags and cut ends)
# VHH: ESGGGLVQPGESLRLSCVASGSIWSIYTMGWYRQAPGKQRDFVASITRDGGRRHAESVKDRFTISRDNAKNTLYLQMNSLKPEDTAVYSCLAITSLGEYWGQGTQVTVSS
# B11: anti-humanized TfR1 protein single-domain antibody 4C5 (VHH clone, crude extract from pMECS) (VHH, not shown: small tags and cut ends)
# VHH: ESGGGLVQPGESLRLSCAASGSIWSIYTMGWYRQAPGLQRDFVGSIAREGGRRYAESVKDRFTISRDNAKNTMYLQMNSLKREDTAVYYCNAITSLGEYWGQGTQVTVSS
# B12: anti-humanized TfR1 protein single-domain antibody 7A3 (VHH clone, crude extract from pMECS) (VHH, not shown: small tags and cut ends)
# VHH: ESGGGLVQPGESLRLSCVASGSIWSIYTMGWYRQAPGKQRDFVASITRDSGRRYAESVKDRFTISRDNAKNTLYLQTNSLKPEDTAVYYCHAITSLGEYWGQGTQVTVSS
# Biological target: T1, human recombinant TfR1 protein (amino acids 89-760) (human, UniProt P02786 89-760)
# T1 construct: range 89-760; Expressed in 293F cells from pcDNA3.4; also called humanized TfR1 protein; humanized recombinant TfR1 protein
# T1 sequence (P02786 89-760 limits assumed): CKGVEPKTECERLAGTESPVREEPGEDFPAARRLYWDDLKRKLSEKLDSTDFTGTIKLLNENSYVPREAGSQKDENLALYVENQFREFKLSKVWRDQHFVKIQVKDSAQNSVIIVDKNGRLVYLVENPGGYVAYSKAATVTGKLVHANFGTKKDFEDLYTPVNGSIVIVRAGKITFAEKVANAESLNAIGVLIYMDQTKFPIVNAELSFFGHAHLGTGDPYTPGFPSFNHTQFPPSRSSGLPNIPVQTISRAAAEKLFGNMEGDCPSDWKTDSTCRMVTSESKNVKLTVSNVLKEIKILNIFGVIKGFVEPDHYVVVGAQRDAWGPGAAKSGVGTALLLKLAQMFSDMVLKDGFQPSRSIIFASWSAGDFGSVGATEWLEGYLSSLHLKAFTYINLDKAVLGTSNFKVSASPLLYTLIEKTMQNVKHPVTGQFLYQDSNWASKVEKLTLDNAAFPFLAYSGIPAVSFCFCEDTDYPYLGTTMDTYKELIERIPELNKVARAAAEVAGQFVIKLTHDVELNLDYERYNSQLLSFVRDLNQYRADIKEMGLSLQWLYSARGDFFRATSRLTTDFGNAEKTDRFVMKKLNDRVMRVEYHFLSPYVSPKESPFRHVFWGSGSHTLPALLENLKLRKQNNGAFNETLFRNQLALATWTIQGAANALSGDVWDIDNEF
# Experiment: ELISA of crude extracts on coated TfR1, anti-HA HRP; positive clone = OD at least 5-fold over control
# Description: Crude antibody extracts were obtained using osmotic lysis. 100 μL of the obtained crude antibody extract was transferred to the TfR1-coated ELISA plate and incubated at room temperature for 1 hour. Unbound antibodies were washed away with PBST buffer with Tween-20 (PBS purchased from Sangon Biotech, Cat. No. B548117-0500; Tween-20 purchased from Beyotime Biotechnology, Cat. No. ST825). 100 μL of 1:2000-diluted mouse anti-HA horseradish peroxidase (HRP)-conjugated antibody (Thermo Fisher) was added and incubated at room temperature for 1 hour. After washing with PBST buffer to remove unbound antibodies, HRP chromogenic solution was added, followed by a 15-minute reaction at 37° C. With the stop solution added, the absorbance was read at 450 nm using a microplate reader (purchased from TECAN).
row,Binder,binding result
1,B1,binds
2,B2,binds
3,B3,binds
4,B4,binds
5,B5,binds
6,B6,binds
7,B7,binds
8,B8,binds
9,B9,binds
10,B10,binds
11,B11,binds
12,B12,binds
